Publication PMC11760825, “Prohibitin 1 tethers lipid membranes and regulates OPA1-mediated membrane fusion” (The Journal of Biological Chemistry, 2024)

Target: the molecule itself
Assay: cell-based or functional assay

B1: recombinant human prohibitin 1 (PHB1), C-terminally histidine-tagged, wild type (natural protein, UniProt P35232 1-272, looked up)
chain: MAAKVFESIGKFGLALAVAGGVVNSALYNVDAGHRAVIFDRFRGVQDIVVGEGTHFLIPWVQKPIIFDCRSRPRNVPVITGSKDLQNVNITLRILFRPVASQLPRIFTSIGEDYDERVLPSITTEILKSVVARFDAGELITQRELVSRQVSDDLTERAATFGLILDDVSLTHLTFGKEFTEAVEAKQVAQQEAERARFVVEKAEQQKKAAIISAEGDSKAAELIANSLATAGDGLIELRKLEAAEDIAYQLSRSRNITYLPAGQSVLLQLPQ
  OPA1-mediated liposome fusion (FRET lipid mixing; 0.5 μM L-OPA1 with 2 μM PHB1 against L-OPA1 alone; fusion activity from the first 2 min): ~3 fold
